Test results: publication PMC9241723

Target: T1, MaNCP1-N (N-terminal C2H2 zinc finger cluster of MaNCP1) (Metarhizium acridum (CQMa102)) (UniProt E9E378)
T1 sequence: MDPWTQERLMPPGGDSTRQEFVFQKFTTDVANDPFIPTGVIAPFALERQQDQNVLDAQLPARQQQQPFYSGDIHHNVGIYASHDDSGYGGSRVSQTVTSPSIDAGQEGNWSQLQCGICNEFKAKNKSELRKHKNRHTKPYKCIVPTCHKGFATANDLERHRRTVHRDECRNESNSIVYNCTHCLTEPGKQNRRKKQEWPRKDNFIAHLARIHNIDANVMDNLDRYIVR
Experiment: EMSA
Details: Chemiluminescent EMSA kit (Beyotime), biotin-labeled probe; buffer, salt, pH and temperature not stated

For “AAAGATCAATAGGAGCTCAGACGACGAGATCGGATGGTGGGGTTCCGGGCAGGCGCAGGCGCGGCGGAAGTCGGCTAGCAGGAGCAACCCAATTGATAAGAGCTCAAGTG (double strand) [MaNmrA promoter probe]”, the binding was “binds”.
